{"source": "the RNAGym collection of RNA variant scans (doi:10.1093/molbev/msab373)", "parents": {"B1": {"name": "Azoarcus group I ribozyme (parent)", "chain": "GUGCCUUGCGCCGGGAAACCACGCAAGGGAUGGUGUCAAAUUCGGCGAAACCUAAGCGCCCGCCCGGGCGUAUGGCAACGCCGAGCCAAGCUUCGGCGCCUGCGCCGAUGAAGGUGUAGAGACUAGACGGCACCCACCUAAGGCAAACGCUAUGGUGAAGGCAUAGUCCAGGGAGUGGCGAAAGUCACACAAACCGG"}}, "data": [{"variants_of": "B1", "assay": "reverse-splicing fitness (ratio to wild type); higher = more active; in vitro selection; Mg2+ level not given", "method_in_brief": "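An in vitro group I ribozyme library with randomized positions was T7-transcribed and gel-purified. In triplicate, 10 pmol RNA in EPPS pH 7.5 was reacted with 50 pmoles of a 30-nt RNA substrate for 1 h at 37 °C across several added MgCl2 levels (1–48 mM), then stopped with EDTA. Products were reverse transcribed from a substrate-complementary primer, PCR-amplified and sequenced (HiSeq 4000). Fitness is a variant's read proportion after selection over that before, normalised to wild type.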", "values": [{"variant": "C82A A111G A120U C169G", "reverse-splicing fitness": 0.00374}, {"variant": "C82A A111G A120U C169G U176A", "reverse-splicing fitness": 0.00294}, {"variant": "C82A A111G A120U C169G U176C", "reverse-splicing fitness": 0.00341}, {"variant": "C82A A111G A120U C169G U176G", "reverse-splicing fitness": 0.00181}, {"variant": "C82A A111G A120U C169U", "reverse-splicing fitness": 0.00452}, {"variant": "C82A A111G A120U C169U U176A", "reverse-splicing fitness": 0.00447}, {"variant": "C82A A111G A120U C169U U176C", "reverse-splicing fitness": 0.00427}, {"variant": "C82A A111G A120U C169U U176G", "reverse-splicing fitness": 0.00235}, {"variant": "C82A A111G A120U U176A", "reverse-splicing fitness": 0.0096}, {"variant": "C82A A111G A120U U176C", "reverse-splicing fitness": 0.0161}, {"variant": "C82A A111G A120U U176G", "reverse-splicing fitness": 0.00504}, {"variant": "C82A A111G A145C", "reverse-splicing fitness": 0.41}, {"variant": "C82A A111G A145C C150A", "reverse-splicing fitness": 0.018}, {"variant": "C82A A111G A145C C150A C169A", "reverse-splicing fitness": 0.00955}, {"variant": "C82A A111G A145C C150A C169A U176A", "reverse-splicing fitness": 0.0122}, {"variant": "C82A A111G A145C C150A C169A U176C", "reverse-splicing fitness": 0.00723}, {"variant": "C82A A111G A145C C150A C169A U176G", "reverse-splicing fitness": 0.00644}, {"variant": "C82A A111G A145C C150A C169G", "reverse-splicing fitness": 0.00918}, {"variant": "C82A A111G A145C C150A C169G U176A", "reverse-splicing fitness": 0.0291}, {"variant": "C82A A111G A145C C150A C169G U176C", "reverse-splicing fitness": 0.0145}, {"variant": "C82A A111G A145C C150A C169G U176G", "reverse-splicing fitness": 0.00722}, {"variant": "C82A A111G A145C C150A C169U", "reverse-splicing fitness": 0.0104}, {"variant": "C82A A111G A145C C150A C169U U176A", "reverse-splicing fitness": 0.0133}, {"variant": "C82A A111G A145C C150A C169U U176C", "reverse-splicing fitness": 0.00831}, {"variant": "C82A A111G A145C C150A C169U U176G", "reverse-splicing fitness": 0.00626}, {"variant": "C82A A111G A145C C150A U176A", "reverse-splicing fitness": 0.015}, {"variant": "C82A A111G A145C C150A U176C", "reverse-splicing fitness": 0.0184}, {"variant": "C82A A111G A145C C150A U176G", "reverse-splicing fitness": 0.00802}, {"variant": "C82A A111G A145C C150G", "reverse-splicing fitness": 0.0325}, {"variant": "C82A A111G A145C C150G C169A", "reverse-splicing fitness": 0.00898}, {"variant": "C82A A111G A145C C150G C169A U176A", "reverse-splicing fitness": 0.00847}, {"variant": "C82A A111G A145C C150G C169A U176C", "reverse-splicing fitness": 0.00805}, {"variant": "C82A A111G A145C C150G C169A U176G", "reverse-splicing fitness": 0.00658}, {"variant": "C82A A111G A145C C150G C169G", "reverse-splicing fitness": 0.00702}, {"variant": "C82A A111G A145C C150G C169G U176A", "reverse-splicing fitness": 0.0093}, {"variant": "C82A A111G A145C C150G C169G U176C", "reverse-splicing fitness": 0.00679}, {"variant": "C82A A111G A145C C150G C169G U176G", "reverse-splicing fitness": 0.00649}, {"variant": "C82A A111G A145C C150G C169U", "reverse-splicing fitness": 0.00926}, {"variant": "C82A A111G A145C C150G C169U U176A", "reverse-splicing fitness": 0.00799}, {"variant": "C82A A111G A145C C150G C169U U176C", "reverse-splicing fitness": 0.0106}, {"variant": "C82A A111G A145C C150G C169U U176G", "reverse-splicing fitness": 0.00568}, {"variant": "C82A A111G A145C C150G U176A", "reverse-splicing fitness": 0.00908}, {"variant": "C82A A111G A145C C150G U176C", "reverse-splicing fitness": 0.0181}, {"variant": "C82A A111G A145C C150G U176G", "reverse-splicing fitness": 0.00447}, {"variant": "C82A A111G A145C C150U", "reverse-splicing fitness": 0.0851}, {"variant": "C82A A111G A145C C150U C169A", "reverse-splicing fitness": 0.00814}, {"variant": "C82A A111G A145C C150U C169A U176A", "reverse-splicing fitness": 0.0133}, {"variant": "C82A A111G A145C C150U C169A U176C", "reverse-splicing fitness": 0.00698}, {"variant": "C82A A111G A145C C150U C169A U176G", "reverse-splicing fitness": 0.00703}, {"variant": "C82A A111G A145C C150U C169G", "reverse-splicing fitness": 0.00745}, {"variant": "C82A A111G A145C C150U C169G U176A", "reverse-splicing fitness": 0.0215}, {"variant": "C82A A111G A145C C150U C169G U176C", "reverse-splicing fitness": 0.0114}, {"variant": "C82A A111G A145C C150U C169G U176G", "reverse-splicing fitness": 0.00676}, {"variant": "C82A A111G A145C C150U C169U", "reverse-splicing fitness": 0.0104}, {"variant": "C82A A111G A145C C150U C169U U176A", "reverse-splicing fitness": 0.0126}, {"variant": "C82A A111G A145C C150U C169U U176C", "reverse-splicing fitness": 0.00981}, {"variant": "C82A A111G A145C C150U C169U U176G", "reverse-splicing fitness": 0.0052}, {"variant": "C82A A111G A145C C150U U176A", "reverse-splicing fitness": 0.0434}, {"variant": "C82A A111G A145C C150U U176C", "reverse-splicing fitness": 0.0542}, {"variant": "C82A A111G A145C C150U U176G", "reverse-splicing fitness": 0.0154}, {"variant": "C82A A111G A145C C169A", "reverse-splicing fitness": 0.0076}, {"variant": "C82A A111G A145C C169A U176A", "reverse-splicing fitness": 0.0123}, {"variant": "C82A A111G A145C C169A U176C", "reverse-splicing fitness": 0.00756}, {"variant": "C82A A111G A145C C169A U176G", "reverse-splicing fitness": 0.00582}, {"variant": "C82A A111G A145C C169G", "reverse-splicing fitness": 0.00994}, {"variant": "C82A A111G A145C C169G U176A", "reverse-splicing fitness": 0.0278}, {"variant": "C82A A111G A145C C169G U176C", "reverse-splicing fitness": 0.0155}, {"variant": "C82A A111G A145C C169G U176G", "reverse-splicing fitness": 0.00487}, {"variant": "C82A A111G A145C C169U", "reverse-splicing fitness": 0.0119}, {"variant": "C82A A111G A145C C169U U176A", "reverse-splicing fitness": 0.013}, {"variant": "C82A A111G A145C C169U U176C", "reverse-splicing fitness": 0.0113}, {"variant": "C82A A111G A145C C169U U176G", "reverse-splicing fitness": 0.00571}, {"variant": "C82A A111G A145C U176A", "reverse-splicing fitness": 0.181}, {"variant": "C82A A111G A145C U176C", "reverse-splicing fitness": 0.248}, {"variant": "C82A A111G A145C U176G", "reverse-splicing fitness": 0.0484}, {"variant": "C82A A111G A145G", "reverse-splicing fitness": 0.419}, {"variant": "C82A A111G A145G C150A", "reverse-splicing fitness": 0.0514}, {"variant": "C82A A111G A145G C150A C169A", "reverse-splicing fitness": 0.0118}, {"variant": "C82A A111G A145G C150A C169A U176A", "reverse-splicing fitness": 0.0216}, {"variant": "C82A A111G A145G C150A C169A U176C", "reverse-splicing fitness": 0.0215}, {"variant": "C82A A111G A145G C150A C169A U176G", "reverse-splicing fitness": 0.00749}, {"variant": "C82A A111G A145G C150A C169G", "reverse-splicing fitness": 0.00998}, {"variant": "C82A A111G A145G C150A C169G U176A", "reverse-splicing fitness": 0.0224}, {"variant": "C82A A111G A145G C150A C169G U176C", "reverse-splicing fitness": 0.0256}]}]}
